Residue numbers refer to the chain shown, from its start.
Assays:
[1] = target: fusion protein hPD1-Fc composed of the PD-1 extracellular domain sequence and human IgG1 FC (human); experiment: competitive phage ELISA on coated hPD1-Fc; competitor Bio-hPDL1-HSA
Method: After washing 3 times with PBST, 100 μl of Streptavidin-HRP diluted 1:50000 (Jackson ImmunoResearch Inc) was added to each well and incubated at 37° C. for 1 hour. After washing 3 times with PBS, TMB color development working solution (Beijing ComWin Biotech Co., Ltd.) was added and incubated at room temperature for 5 minutes to develop color, then 1M sulfuric acid was added to terminate the reaction and OD450 nm reading was recorded. […] Competitive positive clones were selected for sequencing and duplicate sequences were removed.

[2] = target: T1, Monkey RhPD1-HSA fusion protein (monkey); experiment: ELISA, RhPD1-HSA coated 200 ng/well, VHH 1 µg/mL, anti-his detection
T1 construct: also called monkey PD-1
Method: (§1) Monkey RhPD1-HSA fusion protein (SEQ ID No. 30) was coated on plates at 200 ng/well overnight at 4° C. and blocked with 5% skim milk at room temperature for 1 hour. Purified histidine-tagged anti-PD1 single-domain antibody was diluted to 1 μg/mL and incubated at 37° C. for 1 hour with 100 μL per well. After washing with PBST 3 times, a mouse anti-his tag antibody (R&D Systems, Inc) diluted 1:5000 was added at 100 μl/well and incubated at room temperature for 1 hour. After washing with PBST, HRP-Goat anti-mouse IgG antibody (Thermo Scientific) diluted 1:10000 was added at 100 μl/well and incubated at room temperature for 1 hour. After washing with PBST, TMB color developing solution was added for color development and OD value was measured at 450 nm.

[3] = target: T2, HSA (purchased from Sigma) (human, UniProt P02768 25-609); experiment: ELISA, HSA coated 200 ng/well, VHH 1 µg/mL, anti-his detection
T2 construct: Control coat for the HSA part of hPD1-HSA; also called human serum albumin
Method: as §1, with “Human hPD1-HSA, mouse mPD1-HSA” for “Monkey RhPD1-HSA fusion protein”, “NO: 57) or HSA (purchased from Sigma) were” for “No. 30) was”, “anti-PD-1” for “anti-PD1”, “solution (Beijing ComWin Biotech Co., Ltd.)” for “solution”

[4] = target: T3, mouse mPD1-HSA fusion protein (mouse); experiment: ELISA, mPD1-HSA coated 200 ng/well, anti-his detection
T3 construct: also called mouse PD-1
Method: as §1, with “Human hPD1-HSA, mouse mPD1-HSA” for “Monkey RhPD1-HSA fusion protein”, “NO: 57) or HSA (purchased from Sigma) were” for “No. 30) was”, “anti-PD-1” for “anti-PD1”, “solution (Beijing ComWin Biotech Co., Ltd.)” for “solution”

[5] = target: T4, fusion protein hPD1-HSA composed of a PD1 extracellular domain sequence and a human serum albumin sequence (human); experiment: ELISA, hPD1-HSA coated 200 ng/well, VHH 1 µg/mL, anti-his detection
T4 construct: PD-1 extracellular domain fused to HSA; also called Human hPD1-HSA; human PD-1
Method: as §1, with “Human hPD1-HSA, mouse mPD1-HSA” for “Monkey RhPD1-HSA fusion protein”, “NO: 57) or HSA (purchased from Sigma) were” for “No. 30) was”, “anti-PD-1” for “anti-PD1”, “solution (Beijing ComWin Biotech Co., Ltd.)” for “solution”

B1: anti-PD1 single-domain antibody clone 1D3, displayed on recombinant phage (VHH, not shown: large carriers)
VHH: QVQLVESGGGLVQPGGSLNLSCVASGSVFIIDVMAWYRQAPGKQRELVAQIINGGATYYADSVKGRFTISRDDTKTTLYLQMNSLKPDDTAVYYCSAEKFNPYRDSTHFWGQGTQVTVSS
notes: Tested as phage supernatant in the screening ELISAs of Embodiment 2.2
B1: binds [1].

B2: anti-PD-1 single-domain antibody clone 1D3, histidine-tagged, from E. coli (VHH)
VHH: B1 VHH
notes: Alpaca VHH expressed in E. coli Rosetta (DE3) from pET32a+, purified on a Ni column; not shown: C-terminal histidine tag
For B2, the OD450 nm [2] was 2.1 OD450 nm, the OD450 nm [3] was 0.029 OD450 nm and the binding result [4] was “no binding (tested: 1 µg/mL)”. The OD450 nm [5] was 2.1 OD450 nm.

B3: anti-PD1 single-domain antibody clone 2C4, displayed on recombinant phage (VHH, not shown: large carriers)
VHH: B1 VHH with Q13R, N19R, V23A, N53S, G55D, A56H, T57A, H108Y
notes: as for B1
B3: binds [1].

B4: anti-PD1 single-domain antibody clone 1A9, displayed on recombinant phage (VHH, not shown: large carriers)
VHH: B1 VHH with S27N, Y79N, S120A
notes: as for B1
B4: binds [1].

B5: anti-PD1 single-domain antibody clone 1H1, displayed on recombinant phage (VHH, not shown: large carriers)
VHH: B1 VHH with T57S, D73N, Y79F, D88A, S96N, H108N
notes: as for B1
B5: binds [1].

B6: anti-PD1 single-domain antibody clone 2D9, displayed on recombinant phage (VHH, not shown: large carriers)
VHH: B1 VHH with N19R, V23A, G55D, T57K, D73N, K99Q, H108Y
notes: as for B1
B6: binds [1].

B7: anti-PD-1 single-domain antibody clone 1A4, histidine-tagged, from E. coli (VHH)
VHH: B1 VHH with S27N, G55D, T57K, A60V, D73N, V92I, H108N
notes: as for B2
B7 was tested, and the OD450 nm [2] was 2 OD450 nm, the OD450 nm [3] was 0.021 OD450 nm and the binding result [4] was “no binding (tested: 1 µg/mL)”. It also gave an OD450 nm [5] of 2.13 OD450 nm.

B8: anti-PD-1 single-domain antibody clone 2C4, histidine-tagged, from E. coli (VHH)
VHH: B1 VHH with Q13R, N19R, V23A, N53S, G55D, A56H, T57A, H108Y
notes: as for B2
With B8 the OD450 nm [2] was 2.03 OD450 nm, the OD450 nm [3] was 0.022 OD450 nm and the binding result [4] was “no binding (tested: 1 µg/mL)”. It also gave an OD450 nm [5] of 2.14 OD450 nm.

B9: anti-PD-1 single-domain antibody clone 1A9, histidine-tagged, from E. coli (VHH)
VHH: B1 VHH with S27N, Y79N, S120A
notes: as for B2
B9 was tested, and the OD450 nm [2] was 2.02 OD450 nm, the OD450 nm [3] was 0.035 OD450 nm and the binding result [4] was “no binding (tested: 1 µg/mL)”. The OD450 nm [5] was 2.12 OD450 nm.

B10: anti-PD1 single-domain antibody clone 1A4, displayed on recombinant phage (VHH, not shown: large carriers)
VHH: B1 VHH with S27N, G55D, T57K, A60V, D73N, V92I, H108N
notes: as for B1
B10: binds [1].

B11: anti-PD-1 single-domain antibody clone 2D9, histidine-tagged, from E. coli (VHH)
VHH: B1 VHH with N19R, V23A, G55D, T57K, D73N, K99Q, H108Y
notes: as for B2
In the case of B11, the OD450 nm [2] is reported as 2.1 OD450 nm, the OD450 nm [3] is reported as 0.019 OD450 nm and the binding result [4] is reported as “no binding (tested: 1 µg/mL)”. The OD450 nm [5] was 2.11 OD450 nm.

B12: anti-PD-1 single-domain antibody clone 1H1, histidine-tagged, from E. coli (VHH)
VHH: B1 VHH with T57S, D73N, Y79F, D88A, S96N, H108N
notes: as for B2
With B12 the OD450 nm [2] was 2.02 OD450 nm, the OD450 nm [3] was 0.031 OD450 nm and the binding result [4] was “no binding (tested: 1 µg/mL)”. For the same binder, the OD450 nm [5] was 2.17 OD450 nm.
